Data published in US20210169973A1.

Molecular target: murine TMEM219 expressed on murine islets and the murine beta cell line beta-TC (mouse) (UniProt Q9D123)
Assay: cell-based or functional assay

Chain of UniProt Q9D123 (Q9D123 39-240): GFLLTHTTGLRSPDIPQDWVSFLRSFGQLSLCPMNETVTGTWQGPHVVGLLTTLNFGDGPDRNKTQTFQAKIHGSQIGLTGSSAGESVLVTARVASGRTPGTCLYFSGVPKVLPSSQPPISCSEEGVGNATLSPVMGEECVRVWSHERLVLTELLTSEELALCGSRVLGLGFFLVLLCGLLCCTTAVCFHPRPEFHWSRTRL

**Q.** Which early apoptosis of murine islets by FACS (Annexin V+ 7AAD-), IGFBP3-treated vs. untreated does the source give for “recombinant human IGFBP3 (Life Technologies, 10430H07H5) (from UniProt P17936 28-291) (ligand)” here?
**A.** The early apoptosis of murine islets by FACS (Annexin V+ 7AAD-), IGFBP3-treated vs. untreated was 87%.
